Test results published in PMC6715661, “Cardiac MLC2 kinase is localized to the Z-disc and interacts with α-actinin2” (Scientific Reports, 2019).

Target: T1, Myc-α-actinin2, full length, expressed in HEK293 cells (mouse, UniProt Q9JI91 1-894)
T1 construct: α-actinin2, cloned by RT-PCR from RNA of neonatal mouse hearts into pAdlox (pAdlox-Myc-α-actinin2), full length; also called Myc-tagged full-length α-actinin2; source: HEK293 cells, exogenous expression, in lysate (co-IP); purified from HEK293 cells (BLI)
T1 sequence (Q9JI91 whole entry): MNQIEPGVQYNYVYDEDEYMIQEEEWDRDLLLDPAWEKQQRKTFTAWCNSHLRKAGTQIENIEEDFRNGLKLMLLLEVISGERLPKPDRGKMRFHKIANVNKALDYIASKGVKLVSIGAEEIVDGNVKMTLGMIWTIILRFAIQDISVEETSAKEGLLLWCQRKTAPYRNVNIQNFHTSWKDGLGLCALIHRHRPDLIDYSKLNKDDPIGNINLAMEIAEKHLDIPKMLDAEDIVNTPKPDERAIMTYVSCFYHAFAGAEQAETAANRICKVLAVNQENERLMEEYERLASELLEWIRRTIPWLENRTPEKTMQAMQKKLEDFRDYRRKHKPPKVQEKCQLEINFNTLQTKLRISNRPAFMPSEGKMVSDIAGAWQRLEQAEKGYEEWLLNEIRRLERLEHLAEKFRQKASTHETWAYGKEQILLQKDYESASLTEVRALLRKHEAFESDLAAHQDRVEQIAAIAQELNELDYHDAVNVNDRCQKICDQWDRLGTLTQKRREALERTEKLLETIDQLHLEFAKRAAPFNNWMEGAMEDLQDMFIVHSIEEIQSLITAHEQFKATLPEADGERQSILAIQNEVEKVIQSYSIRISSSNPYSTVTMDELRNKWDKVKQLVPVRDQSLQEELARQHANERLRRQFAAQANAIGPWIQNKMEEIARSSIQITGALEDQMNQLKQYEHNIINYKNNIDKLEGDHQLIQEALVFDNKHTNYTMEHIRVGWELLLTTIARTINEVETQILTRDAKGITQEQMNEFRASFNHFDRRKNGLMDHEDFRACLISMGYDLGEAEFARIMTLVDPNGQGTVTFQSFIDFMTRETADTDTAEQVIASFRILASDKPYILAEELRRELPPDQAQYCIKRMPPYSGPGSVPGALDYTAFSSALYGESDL
Assay: BLI; Octet RED384, 30 °C; biotinylated anti-Myc antibody on streptavidin biosensors captures Myc-α-actinin2 (10 μg/ml, 100 nM); HA-cMLCK in solution, two-fold dilutions from 14 to 1.75 μg/ml; 20 mM Tris, 150 mM NaCl, 0.002% Tween, pH 7.3; global fit, 2:1 heterogeneous ligand analysis
Settings: both partners purified

B1: HA-cMLCK, full length, expressed in HEK293 cells (enzyme, mouse, UniProt Q3UIZ8 1-795, looked up)
chain: MSGVSEEDPEGLAPQGLPALGGACLATMDKKLNVLTEKVDRLLHFQEDVTEKLQCVCQGMDHLEQDLHRLEASRELSLAGSGSTPPTTAQAAWPEVLELVRAVRQEGAQHGARLEALFKMVVAVDRAITLVGSTFQNSKVADFIMQGTVPGRKGSLADGPEENKEQAEVAGVKPNHVLTTGGVQADASRTLWEESQKEDIPVRTVEGLPLIINTSLKGADLTQAGASLRQGVEVLGPGQVPLPTEAESRLPETASENTGATLELSVAIDRISEVLTSLKMSQGGGQETSSSKPDCWLSEEAMRLSSGPLPQPLGPLTPDSDIHSGDALPRIPINMQEMATPGELLETQSGSPIGSAEAPGLGTVLEDQIPKGARPFPPLPKRSSNNGGMSAEEEIGSGAEPMRGPSLATRDWRDETVGTTDLQQGIDPGAVSPEPGKDHAAQGPGRTEAGRLSSAAEAAIVVLDDSAAPPAPFEHRVVSIKDTLISAGYTVSQHEVLGGGRFGQVHRCTERSTGLALAAKIIKVKNVKDREDVKNEVNIMNQLSHVNLIQLYDAFESKSSFTLIMEYVDGGELFDRITDEKYHLTELDVVLFTRQICEGVHYLHQHYILHLDLKPENILCVSQTGHQIKIIDFGLARRYKPREKLKVNFGTPEFLAPEVVNYEFVSFPTDMWSVGVITYMLLSGLSPFLGETDAETMNFIVNCSWDFDADTFKGLSEEAKDFVSRLLVKEKSCRMSATQCLKHEWLSHLPAKASGSNVRLRSQQLLQKYMAQSKWKKHFHVVTAVNRLRKFPTCP
notes: cardiac myosin light chain kinase (cMLCK), mouse, full length (residues to 795 by the printed deletion constructs); also called HA-MLCK; HA-full-length cMLCK; source: HEK293 cells, exogenous expression, in lysate (co-IP); purified (BLI)
B1 showed a Kd of 13.4 nM, a koff of 0.000341 s⁻¹ and a kon of 25800 M⁻¹ s⁻¹.
